Substitutions are numbered along the chain they refer to. Read-outs that look alike come from different tables or passages of the source. Each block holds one molecule with its values, some of them ahead of it.
Experiments:
[1] = molecular target: TEV-cleaved wild-type recombinant human galectin-10 (soluble, in Fab complexes, or as recombinant galectin-10 crystals / CLCs) (human) (UniProt Q05315); experiment: cell-based or functional assay
[2] = molecular target: T1, TEV-cleaved wild-type recombinant human galectin-10 (soluble, in Fab complexes, or as recombinant galectin-10 … (human, UniProt Q05315 1-142)); experiment: cell-based or functional assay
T1 sequence: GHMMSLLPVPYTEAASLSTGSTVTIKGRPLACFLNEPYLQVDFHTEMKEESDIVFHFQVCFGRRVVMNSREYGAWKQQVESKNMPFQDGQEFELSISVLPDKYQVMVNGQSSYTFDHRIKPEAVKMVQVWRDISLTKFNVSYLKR

[3] = molecular target: T1, TEV-cleaved wild-type recombinant human …; experiment: cell-based or functional assay; remark: listed apart in the source
[4] = molecular target: T1, TEV-cleaved wild-type recombinant human …; experiment: cell-based or functional assay; remark: listed apart in the source
[5] = molecular target: T2, human galectin-10-His (recombinant human galectin-10 with TEV-cleavable N-terminal His-tag) (human); experiment: ELISA binding (summary table), mouse IgG1
T2 construct: SEC-MALLS: dimer in solution; also called Gal10-His; humanGal10-His
T2 chain: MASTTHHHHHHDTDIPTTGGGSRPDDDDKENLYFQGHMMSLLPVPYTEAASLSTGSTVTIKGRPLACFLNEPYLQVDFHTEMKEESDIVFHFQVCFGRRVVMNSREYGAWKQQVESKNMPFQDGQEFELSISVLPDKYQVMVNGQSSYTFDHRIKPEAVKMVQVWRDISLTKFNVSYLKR

[6] = molecular target: T2, human galectin-10-His (recombinant …); experiment: Biacore capture approach (summary table), mouse IgG1
Protocol: The binding capacity of the mouse IgG1 antibodies to galectin-10 was analyzed on Biacore T3000. For this purpose, a capture approach was set up. A CM5 Chip was coated with polyclonal anti-mouse Fc at 8000 RU, then a fixed concentration of the mouse IgG1 antibody panel (1.5 μg/mL), diluted in HBS-EP pH7.4, was captured to reach a binding signal around 150 RU. Finally, a serial dilution of galectin-10-His (serial dilution, 1 over 2 from 5 μg/mL) diluted in HBS-EP pH7.4 was injected. Raw data were analyzed via BIA evaluation software with a blank subtraction (4-3). The kd/KD and Rmax of each mAb to galectin-10-His was determined using the Fit Kinetics simultaneous ka/kd/Binding with mass transfer/Local Rmax on BIA evaluation software.

[7] = molecular target: T2, human galectin-10-His (recombinant …); experiment: ELISA, mouse IgG1 on coated galectin-10-His (0.2 ug/mL)
Procedure, shortened: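 Serial dilutions of each antibody (from 100 nM, 1/4 steps, 12 points) were incubated on plates coated overnight with the antigen. Bound IgG1 detected with anti-mouse Fc-HRP, absorbance at 450 nm (reference 620 nm). EC50 from four-parameter variable-slope non-linear regression of OD values.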

[8] = molecular target: T2, human galectin-10-His (recombinant …); experiment: BLI tandem on galectin-10-His; competitor: saturating 1C09 mIgG1 (10 ug/mL)
Procedure, shortened: (§1)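 Tandem BLI binning: antigen captured via His-tag, blocked with one antibody in excess, then probed with a second at suboptimal level.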

[9] = molecular target: T2, human galectin-10-His (recombinant …); experiment: BLI tandem on galectin-10-His; competitor: saturating 1D11 mIgG1 (10 ug/mL)
Procedure, shortened: as §1

[10] = molecular target: T2, human galectin-10-His (recombinant …); experiment: BLI tandem on galectin-10-His; competitor: saturating 2C07 mIgG1 (10 ug/mL)
Procedure, shortened: as §1

[11] = molecular target: T2, human galectin-10-His (recombinant …); experiment: BLI tandem on galectin-10-His; competitor: saturating 2F09 mIgG1 (10 ug/mL)
Procedure, shortened: as §1

[12] = molecular target: T2, human galectin-10-His (recombinant …); experiment: BLI tandem on galectin-10-His; competitor: saturating 4E08 mIgG1 (10 ug/mL)
Procedure, shortened: as §1

[13] = molecular target: T2, human galectin-10-His (recombinant …); experiment: BLI tandem on galectin-10-His; competitor: saturating 6A05 mIgG1 (10 ug/mL)
Procedure, shortened: as §1

[14] = molecular target: T2, human galectin-10-His (recombinant …); experiment: BLI tandem on galectin-10-His; competitor: saturating 6A08 mIgG1 (10 ug/mL)
Procedure, shortened: as §1

[15] = molecular target: T2, human galectin-10-His (recombinant …); experiment: BLI tandem on galectin-10-His; competitor: saturating 6B06 mIgG1 (10 ug/mL)
Procedure, shortened: as §1

[16] = molecular target: T2, human galectin-10-His (recombinant …); experiment: BLI tandem on galectin-10-His; competitor: saturating 6E10 mIgG1 (10 ug/mL)
Procedure, shortened: as §1

[17] = molecular target: T2, human galectin-10-His (recombinant …); experiment: BLI tandem on galectin-10-His; competitor: saturating 6F06 mIgG1 (10 ug/mL)
Procedure, shortened: as §1

[18] = molecular target: T2, human galectin-10-His (recombinant …); experiment: BLI tandem on galectin-10-His; isotype control as saturating antibody (10 ug/mL)
Procedure, shortened: as §1

[19] = molecular target: T2, human galectin-10-His (recombinant …); experiment: SPR Biacore T3000, mouse IgG1 captured by anti-mouse Fc, galectin-10-His as analyte
Procedure, shortened: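 Polyclonal anti-mouse Fc on a CM5 chip (8000 RU) captured each mouse IgG1 (1.5 μg/mL) to around 150 RU. Galectin-10-His was then injected as a 1:2 serial dilution from 5 μg/mL in HBS-EP pH7.4. After blank subtraction, kd/KD and Rmax came from a simultaneous ka/kd fit with mass transfer and local Rmax.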

[20] = molecular target: T3, cynomolgus galectin-10-His, YRT isoform (cynomolgus); experiment: ELISA, coated antigen 0.5 ug/mL
T3 sequence: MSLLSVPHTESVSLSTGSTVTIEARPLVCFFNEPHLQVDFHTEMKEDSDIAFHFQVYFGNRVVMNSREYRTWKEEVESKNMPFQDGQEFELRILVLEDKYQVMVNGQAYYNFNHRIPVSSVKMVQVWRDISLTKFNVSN

[21] = molecular target: T4, recombinant human galectin-10, TEV-cleaved (human, UniProt Q05315 1-142); experiment: cell-based or functional assay
T4 sequence: T1 sequence

[22] = molecular target: T4, recombinant human galectin-10, …; experiment: cell-based or functional assay; remark: listed apart in the source
human galectin-10-His [23] = molecular target: T5, human galectin-10-His (human); experiment: ELISA, coated antigen 0.5 ug/mL
T5 construct: The last M of the tag may be Met1 of galectin-10; also called humanGal10-His; hGal10
T5 chain: T2 chain

[24] = molecular target: T6, cynomolgus galectin-10-His, WGS isoform (cynomolgus); experiment: ELISA, coated antigen 0.5 ug/mL
T6 construct: also called cynoGal10-WGS; not shown: His tag
T6 chain: T3 sequence with E23K, A24G, F31L, Y69F, R70K, T71I, R92S

human galectin-10-His [25] = molecular target: T5, human galectin-10-His; experiment: SPR Biacore T3000, mouse IgG1 captured
[26] = molecular target: T6, cynomolgus galectin-10-His, WGS isoform; experiment: SPR Biacore T3000, mouse IgG1 captured

- CLC formation (crystallization robot assay) [1]: 100%
Molecule: mouse IgG1 isotype control (irrelevant mouse IgG1) (antibody)

- dissolution of in vitro grown Gal10 crystals (spinning disk confocal microscopy) [2]: ≤ 90 min
- 100% Solubilization of CLC (Conc uM) [3]: > 10 µM
- 100% Inhibition of CLC formation (Conc uM) [4]: 1.11 µM
- 100% Solubilization of CLC (Conc uM) [4]: > 10 µM
- EC50 [5]: 3.22 nM
- Kd [6]: 0.8 nM
- koff [6]: 0.00085 s⁻¹
- Bmax [7]: 2.06 OD
- EC50 [7]: 3.22 nM
- binding signal (nm) [8]: -0.02 nm
- binding signal (nm) [9]: 0.03 nm
- binding signal (nm) [10]: 0 nm
- binding signal (nm) [11]: 0.01 nm
- binding signal (nm) [12]: -0.08 nm
- binding signal (nm) [13]: 0.03 nm
- binding signal (nm) [14]: -0.03 nm
- binding signal (nm) [15]: 0 nm
- binding signal (nm) [16]: -0.05 nm
- binding signal (nm) [17]: 0.01 nm
- binding signal (nm) [18]: 0.97 nm
- Kd [19]: 0.8 nM
- koff [19]: 0.00085 s⁻¹
B1: 4E08 mouse IgG1 (antibody, V domains shown)
VH: QVQRQESGPGLVKPSQTLSLTCTVSGGSITTSYYAWSWIRQPPGKGLEWMGVIASDGSTYYSPSLKSRTSISRDTSKNQFSLQLSSVTPEDTAVYYCALYIRGSSWSGWSAYDYWGQGTQVTVSS
VL: QPVLNQPSAVSVSLGQTARITCQGGNFGYYYGSWYQQKPGQAPVLVIYKDSERPSGIPERFSGSSSGGTATLTISRAQAEDEADYYCQSADSSDNPVFGGGTHLTVL
notes: VH on mouse IgG1 heavy chain constant domains (CH1-CH2-CH3), VL on mouse lambda light chain constant domain; also called 4E8; 4E08 mIgG1

- dissolution of in vitro grown Gal10 crystals (spinning disk confocal microscopy) [2]: ≤ 90 min
- 100% Solubilization of CLC (Conc uM) [3]: 10.5 µM
- 100% Inhibition of CLC formation (Conc uM) [4]: 0.82 µM
- 100% Solubilization of CLC (Conc uM) [4]: 10.5 µM
- EC50 [5]: 0.13 nM
- Kd [6]: 0.5 nM
- koff [6]: 0.00529 s⁻¹
- Bmax [7]: 2.3 OD
- EC50 [7]: 0.13 nM
- binding signal (nm) [8]: 0.03 nm
- binding signal (nm) [9]: 0.1 nm
- binding signal (nm) [10]: 0.03 nm
- binding signal (nm) [11]: 0.02 nm
- binding signal (nm) [12]: 0.08 nm
- binding signal (nm) [13]: 0.09 nm
- binding signal (nm) [14]: 0.04 nm
- binding signal (nm) [15]: 0.02 nm
- binding signal (nm) [16]: 0.02 nm
- binding signal (nm) [17]: 0.04 nm
- binding signal (nm) [18]: 1.21 nm
- Kd [19]: 0.5 nM
- koff [19]: 0.00529 s⁻¹
B2: 1C09 mouse IgG1 (antibody, V domains shown)
VH: QVQLVESGPGLVKPSQTLSLTCTVSGGSITTNSYYWSWIRQPPGKGLEWMGAIAYSGSTYYSPSLKSRTSISRDTSKNQFTLHLSSVTPEDTAVYYCARRPNWYRALDAWGQGTLVTVSS
VL: NFMLTQPSAVSVSLGQTARITCQGANLGRYYGIWYQQKPGQAPVQVIYGDSNRPSGIPERFSGSSSGGTATLTISGAQAEDEADYYCQSYESSTSPVFGGGTHLTVL
notes: VH on mouse IgG1 heavy chain constant domains (CH1-CH2-CH3), VL on mouse lambda light chain constant domain; also called 1C09 mIgG1

- OD values [20]: 0.01 OD
- 50% dissolution (min) of CLCs, antibody 50 uM [21]: 13.2 min
- 90% dissolution (min) of CLCs, antibody 50 uM [21]: 44.4 min
- 50% crystal dissolution (min), 50 uM [22]: 31.8 min
- 90% crystal dissolution (min), 50 uM [22]: 93 min
- EC50 (human galectin-10-His [23]): 0.57 nM
- OD values (human galectin-10-His [23]): 0.4 OD
- EC50 [24]: 0.06 nM
- OD values [24]: 3.22 OD
- Kd (human galectin-10-His [25]): 1.4 nM
- koff (human galectin-10-His [25]): 0.0039 s⁻¹
- kon (human galectin-10-His [25]): 2.78e+06 M⁻¹ s⁻¹
- Kd [26]: 1.5 nM
- koff [26]: 0.066 s⁻¹
- kon [26]: 4.54e+07 M⁻¹ s⁻¹
B3: 7B07 mouse IgG1 (antibody, V domains shown)
VH: QVQLVESGGGLVQPGGSLRLSCAASGFTFRSYDMSWVRQAPGKGPEWVSAIKNGGGITYYADSVKGRFTISRDNAKNTLYLQMNSLKPEDTAVYYCATTHGIGTLGFGSWGQGTQVTVSS
VL: SYELTQSASVSVALTQTAKITCDGNNIGSKSAQWYQQKPGQAPALVIYADEYRPEGIPERFSGSNSGNTATLIISGAQAEDEADYYCQVWDGSAAVFGRGTHLTVL
notes: VH and VL cloned in frame with mouse IgG1 constant domains; also called 7B07 mIgG1

- OD values [20]: 0.03 OD
B4: 1D11 mouse IgG1 (antibody, V domains shown)
VH: QVQLVESGGGLVQPGGSLRLSCAASGFTFDDYAMSWVRQAPGKGLEWVSGISWNGGSTYYAESMKGRFTISRDNAKNTLYLQMNSLKSEDTAVYYCAKDRNLGYRLGYPYDYWGQGTQVTVSS
VL: QSVLTQPPSVSGSPGETVTISCAGTSSDVGYGNYVSWYQQLPGMAPRLLIYEVNKRASGITDRFSGSKSGNTASLTISGLQSEDEGDYYCASYRSSNNAVFGGGTHLTVL
